Results as given in publication PMC4764553, “Human cytomegalovirus IE1 protein alters the higher-order chromatin structure by targeting the acidic patch of the nucleosome” (eLife, 2016).
Like-named read-outs stand apart in the source and are kept apart here.

Assays:
Assay in all cases: ITC
[1] = test system: IE1-CTD (chromatin-tethering domain peptide);human histone octamer WT (human cytomegalovirus;Homo sapiens)
[2] = test system: IE1 full length;human histone octamer WT (human cytomegalovirus (Towne);Homo sapiens)
[3] = test system: IE1-CTD (chromatin-tethering domain peptide);human histone octamer WT (human cytomegalovirus;Homo sapiens); remark: listed apart in the source

**Q.** How did the Kd [1] turn out when 147-bp Widom 601 (human NCP) was run?
**A.** 2250 nM

**Q.** And the Kd [2]?
**A.** 11.3 µM

**Q.** What about the Kd [3] of the same substance?
**A.** 400 nM
